This passage reports abundance fitness results from the Human Domainome abundance scans (Beltran et al. 2025).

± gives the uncertainty stated by the source.

A short description of this data set: abundance fitness (aPCA) (normalised: wild type 0, dead -1); higher = more abundant; growth selection in yeast, the domain comes from the species named. The following applies: Homo sapiens.
On to “Scaffold attachment factor B1 R44T, Q15424”, for which the abundance fitness is -0.024 ± 0.062.

The substance “Scaffold attachment factor B1 R44V, Q15424” had an abundance fitness of -0.092 ± 0.054.

In the case of “Scaffold attachment factor B1 R46A, Q15424”, the abundance fitness is -0.745 ± 0.069.

The substance “Scaffold attachment factor B1 R46C, Q15424” displayed an abundance fitness of -0.445 ± 0.1.

“Scaffold attachment factor B1 R46D, Q15424” displayed an abundance fitness of -0.832 ± 0.071.

With “Scaffold attachment factor B1 R46E, Q15424”, the abundance fitness is -0.954 ± 0.1.

With “Scaffold attachment factor B1 R46F, Q15424”, the abundance fitness is -0.545 ± 0.069.

Substance “Scaffold attachment factor B1 R46G, Q15424” had an abundance fitness of -0.84 ± 0.053.

“Scaffold attachment factor B1 R46H, Q15424” gave an abundance fitness of -0.423 ± 0.12.

“Scaffold attachment factor B1 R46I, Q15424” had an abundance fitness of -0.642 ± 0.072.

“Scaffold attachment factor B1 R46K, Q15424” displayed an abundance fitness of -0.602 ± 0.11.

“Scaffold attachment factor B1 R46L, Q15424” yielded an abundance fitness of -0.491 ± 0.063.

The substance “Scaffold attachment factor B1 R46M, Q15424” showed an abundance fitness of -0.384 ± 0.1.

Turning to “Scaffold attachment factor B1 R46N, Q15424”, the abundance fitness was -0.819 ± 0.15.

In the case of “Scaffold attachment factor B1 R46P, Q15424”, the abundance fitness is -0.937 ± 0.12.

Turning to “Scaffold attachment factor B1 R46Q, Q15424”, the abundance fitness was -0.734 ± 0.089.

Regarding “Scaffold attachment factor B1 R46S, Q15424”, the abundance fitness is -0.763 ± 0.068.

“Scaffold attachment factor B1 R46T, Q15424”: the abundance fitness is -0.845 ± 0.11.

“Scaffold attachment factor B1 R46V, Q15424”: the abundance fitness is -0.797 ± 0.074.

In the case of “Scaffold attachment factor B1 R46W, Q15424”, the abundance fitness is -0.8 ± 0.062.

“Scaffold attachment factor B1 R46Y, Q15424” displayed an abundance fitness of -0.463 ± 0.064.

Turning to “Scaffold attachment factor B1 R60A, Q15424”, the abundance fitness is -0.22 ± 0.054.

The substance “Scaffold attachment factor B1 R60C, Q15424” came in with an abundance fitness of -0.676 ± 0.1.

As to “Scaffold attachment factor B1 R60D, Q15424”, the abundance fitness is -0.659 ± 0.13.

In the case of “Scaffold attachment factor B1 R60E, Q15424”, the abundance fitness was -0.551 ± 0.089.

“Scaffold attachment factor B1 R60F, Q15424” showed an abundance fitness of -0.801 ± 0.053.

“Scaffold attachment factor B1 R60G, Q15424” registered an abundance fitness of -0.464 ± 0.075.

On to “Scaffold attachment factor B1 R60I, Q15424”, for which the abundance fitness is -0.551 ± 0.11.

“Scaffold attachment factor B1 R60K, Q15424”: the abundance fitness is -0.099 ± 0.065.

For “Scaffold attachment factor B1 R60L, Q15424”, the abundance fitness was -0.335 ± 0.053.

With “Scaffold attachment factor B1 R60M, Q15424”, the abundance fitness was -0.38 ± 0.065.

With “Scaffold attachment factor B1 R60N, Q15424”, the abundance fitness is -0.326 ± 0.11.

“Scaffold attachment factor B1 R60P, Q15424”: the abundance fitness is -0.492 ± 0.072.

“Scaffold attachment factor B1 R60Q, Q15424” had an abundance fitness of -0.445 ± 0.081.

With “Scaffold attachment factor B1 R60S, Q15424”, the abundance fitness was -0.321 ± 0.076.

In turn, “Scaffold attachment factor B1 R60T, Q15424” had an abundance fitness of -0.268 ± 0.081.

For “Scaffold attachment factor B1 R60V, Q15424”, the abundance fitness is -0.432 ± 0.069.

The substance “Scaffold attachment factor B1 R60W, Q15424” returned an abundance fitness of -1.17 ± 0.065.

“Scaffold attachment factor B1 R60Y, Q15424” came in with an abundance fitness of -0.642 ± 0.11.

In turn, “Scaffold attachment factor B1 S32C, Q15424” displayed an abundance fitness of -0.32 ± 0.077.

In turn, “Scaffold attachment factor B1 S32D, Q15424” gave an abundance fitness of -0.236 ± 0.088.

For the substance “Scaffold attachment factor B1 S32E, Q15424”, the abundance fitness is -0.419 ± 0.11.

Substance “Scaffold attachment factor B1 S32F, Q15424” displayed an abundance fitness of -0.344 ± 0.083.

“Scaffold attachment factor B1 S32G, Q15424” came in with an abundance fitness of -0.235 ± 0.064.

“Scaffold attachment factor B1 S32H, Q15424” showed an abundance fitness of -0.493 ± 0.1.

For the substance “Scaffold attachment factor B1 S32K, Q15424”, the abundance fitness was -0.173 ± 0.088.

Substance “Scaffold attachment factor B1 S32L, Q15424” registered an abundance fitness of -0.294 ± 0.071.

Substance “Scaffold attachment factor B1 S32M, Q15424” gave an abundance fitness of -0.21 ± 0.067.

In the case of “Scaffold attachment factor B1 S32N, Q15424”, the abundance fitness was -0.59 ± 0.1.

As to “Scaffold attachment factor B1 S32P, Q15424”, the abundance fitness is -0.514 ± 0.083.

“Scaffold attachment factor B1 S32R, Q15424” came in with an abundance fitness of -0.114 ± 0.057.

As for “Scaffold attachment factor B1 S32T, Q15424”, the abundance fitness was -0.217 ± 0.089.

“Scaffold attachment factor B1 S32V, Q15424” showed an abundance fitness of -0.174 ± 0.059.

Substance “Scaffold attachment factor B1 S32W, Q15424” returned an abundance fitness of -0.419 ± 0.053.

As for “Scaffold attachment factor B1 S32Y, Q15424”, the abundance fitness is -0.331 ± 0.082.

Consider “Scaffold attachment factor B1 S50A, Q15424”, for which the abundance fitness was -0.2 ± 0.062.

Regarding “Scaffold attachment factor B1 S50C, Q15424”, the abundance fitness was -0.226 ± 0.072.

The substance “Scaffold attachment factor B1 S50E, Q15424” had an abundance fitness of -0.278 ± 0.078.

“Scaffold attachment factor B1 S50F, Q15424” gave an abundance fitness of -0.259 ± 0.08.

In the case of “Scaffold attachment factor B1 S50G, Q15424”, the abundance fitness is -0.257 ± 0.063.

Substance “Scaffold attachment factor B1 S50H, Q15424” registered an abundance fitness of -0.099 ± 0.072.

The substance “Scaffold attachment factor B1 S50I, Q15424” came in with an abundance fitness of -0.292 ± 0.096.

For the substance “Scaffold attachment factor B1 S50K, Q15424”, the abundance fitness was -0.558 ± 0.11.

For “Scaffold attachment factor B1 S50L, Q15424”, the abundance fitness was -0.234 ± 0.058.

In turn, “Scaffold attachment factor B1 S50M, Q15424” returned an abundance fitness of -0.302 ± 0.097.

Substance “Scaffold attachment factor B1 S50N, Q15424” registered an abundance fitness of -0.316 ± 0.091.

“Scaffold attachment factor B1 S50P, Q15424”: the abundance fitness was -0.191 ± 0.058.

“Scaffold attachment factor B1 S50Q, Q15424” registered an abundance fitness of -0.166 ± 0.086.

As for “Scaffold attachment factor B1 S50R, Q15424”, the abundance fitness is -0.365 ± 0.06.

“Scaffold attachment factor B1 S50T, Q15424” displayed an abundance fitness of -0.312 ± 0.093.

For “Scaffold attachment factor B1 S50V, Q15424”, the abundance fitness was -0.236 ± 0.068.

In the case of “Scaffold attachment factor B1 S50W, Q15424”, the abundance fitness is -0.226 ± 0.068.

“Scaffold attachment factor B1 S50Y, Q15424”: the abundance fitness was -0.248 ± 0.074.

In the case of “Scaffold attachment factor B1 S51A, Q15424”, the abundance fitness was -0.299 ± 0.071.

Substance “Scaffold attachment factor B1 S51C, Q15424” yielded an abundance fitness of -0.217 ± 0.07.

“Scaffold attachment factor B1 S51E, Q15424” came in with an abundance fitness of -0.247 ± 0.078.

In turn, “Scaffold attachment factor B1 S51F, Q15424” displayed an abundance fitness of -0.389 ± 0.085.

Turning to “Scaffold attachment factor B1 S51G, Q15424”, the abundance fitness was -0.111 ± 0.058.

“Scaffold attachment factor B1 S51H, Q15424” showed an abundance fitness of -0.26 ± 0.11.

In the case of “Scaffold attachment factor B1 S51I, Q15424”, the abundance fitness is -0.153 ± 0.089.

Substance “Scaffold attachment factor B1 S51K, Q15424” returned an abundance fitness of -0.327 ± 0.093.

Turning to “Scaffold attachment factor B1 S51L, Q15424”, the abundance fitness was -0.197 ± 0.061.

As to “Scaffold attachment factor B1 S51M, Q15424”, the abundance fitness was -0.284 ± 0.07.

In the case of “Scaffold attachment factor B1 S51N, Q15424”, the abundance fitness was -0.167 ± 0.1.

The substance “Scaffold attachment factor B1 S51P, Q15424” showed an abundance fitness of -0.879 ± 0.11.

In turn, “Scaffold attachment factor B1 S51Q, Q15424” returned an abundance fitness of -0.271 ± 0.079.

Regarding “Scaffold attachment factor B1 S51R, Q15424”, the abundance fitness was -0.141 ± 0.076.

“Scaffold attachment factor B1 S51T, Q15424” gave an abundance fitness of -0.326 ± 0.081.

On to “Scaffold attachment factor B1 S51V, Q15424”, for which the abundance fitness was -0.118 ± 0.061.

In the case of “Scaffold attachment factor B1 S51W, Q15424”, the abundance fitness is -0.55 ± 0.088.

In turn, “Scaffold attachment factor B1 S51Y, Q15424” returned an abundance fitness of -0.472 ± 0.11.

Substance “Scaffold attachment factor B1 S55A, Q15424” yielded an abundance fitness of -0.207 ± 0.076.

“Scaffold attachment factor B1 S55D, Q15424”: the abundance fitness is -0.187 ± 0.082.

“Scaffold attachment factor B1 S55E, Q15424” gave an abundance fitness of -0.092 ± 0.069.

Substance “Scaffold attachment factor B1 S55F, Q15424” came in with an abundance fitness of -0.223 ± 0.054.

As for “Scaffold attachment factor B1 S55G, Q15424”, the abundance fitness is -0.144 ± 0.066.
